# T1: βCat (whole normal β-catenin protein) (UniProt P35222 1-781)
# T1 construct: Two-hybrid hybrid; also called whole β-catenin protein
# T1 sequence (looked up): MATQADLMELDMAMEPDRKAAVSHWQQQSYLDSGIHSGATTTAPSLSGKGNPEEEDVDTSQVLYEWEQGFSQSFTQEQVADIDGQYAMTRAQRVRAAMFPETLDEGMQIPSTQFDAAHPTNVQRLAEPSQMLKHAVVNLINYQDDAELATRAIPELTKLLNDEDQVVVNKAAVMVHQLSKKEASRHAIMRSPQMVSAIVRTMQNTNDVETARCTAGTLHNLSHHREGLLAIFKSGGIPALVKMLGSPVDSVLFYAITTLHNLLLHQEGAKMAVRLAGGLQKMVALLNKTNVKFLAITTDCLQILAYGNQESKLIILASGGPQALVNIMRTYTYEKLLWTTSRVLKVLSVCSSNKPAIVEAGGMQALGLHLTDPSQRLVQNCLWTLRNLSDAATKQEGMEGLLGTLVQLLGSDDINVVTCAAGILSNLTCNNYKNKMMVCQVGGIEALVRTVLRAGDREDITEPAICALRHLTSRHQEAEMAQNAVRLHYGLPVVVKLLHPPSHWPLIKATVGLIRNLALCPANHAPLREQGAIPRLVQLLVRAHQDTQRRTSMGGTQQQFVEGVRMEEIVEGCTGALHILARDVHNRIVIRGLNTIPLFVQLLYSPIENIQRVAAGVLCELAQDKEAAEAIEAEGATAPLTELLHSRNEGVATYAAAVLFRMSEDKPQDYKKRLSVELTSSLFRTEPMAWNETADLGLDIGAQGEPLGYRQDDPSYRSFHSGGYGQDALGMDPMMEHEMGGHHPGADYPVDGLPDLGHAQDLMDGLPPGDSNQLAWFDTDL
# T2: KIAA 0696 (βTrCP2), human βTrCP protein isolated by ISHIKAWA et al. (human, UniProt Q9UKB1 1-542, limits assumed)
# T2 construct: Two-hybrid hybrid; also called βTCP2; KIA 696
# T2 sequence (looked up): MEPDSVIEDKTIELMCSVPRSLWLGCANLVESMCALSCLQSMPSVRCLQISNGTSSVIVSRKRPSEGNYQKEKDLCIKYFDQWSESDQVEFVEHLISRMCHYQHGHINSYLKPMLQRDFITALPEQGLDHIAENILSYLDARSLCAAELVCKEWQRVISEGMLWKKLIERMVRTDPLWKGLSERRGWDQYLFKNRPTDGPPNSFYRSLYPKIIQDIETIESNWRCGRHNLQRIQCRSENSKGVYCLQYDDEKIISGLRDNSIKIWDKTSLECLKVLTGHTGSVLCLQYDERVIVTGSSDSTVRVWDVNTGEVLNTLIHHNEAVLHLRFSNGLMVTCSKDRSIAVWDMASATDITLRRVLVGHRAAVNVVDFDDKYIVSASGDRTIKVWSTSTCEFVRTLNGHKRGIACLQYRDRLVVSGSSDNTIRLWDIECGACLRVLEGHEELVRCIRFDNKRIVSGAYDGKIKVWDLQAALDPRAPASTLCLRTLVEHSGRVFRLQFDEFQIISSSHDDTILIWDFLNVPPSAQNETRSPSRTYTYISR
# B1: human βTrCP protein (h-βTrCP) (other)
# chain: MDPAEAVLQEKALKFMNSSEREDCNNGEPPRKIIPEKNSLRQTYNSCARLCLNQETVCLASTAMKTENCVAKTKLANGTSSMIVPKQRKLSASYEKEKELCVKYFEQWSESDQVEFVEHLISQMCHYQHGHINSYLKPMLQRDFITALPARGLDHIAENILSYLDAKSLCAAELVCKEWYRVTSDGMLWKKLIERMVRTDSLWRGLAERRGWGQYLFKNKPPDGNAPPNSFYRALYPKIIQDIETIESNWRCGRHSLQRIHCRSETSKGVYCLQYDDQKIVSGLRDNTIKIWDKNTLECKRILTGHTGSVLCLQYDERVIITGSSDSTVRVWDVNTGEMLNTLIHHCEAVLHLRFNNGMMVTCSKDRSIAVWDMASPTDITLRRVLVGHRAAVNVVDFDDKYIVSASGDRTIKVWNTSTCEFVRTLNGHKRGIACLQYRDRLVVSGSSDNTIRLWDIECGACLRVLEGHEELVRCIRFDNKRIVSGAYDGKIKVWDLVAALDPRAPAGTLCLRTLVEHSGRVFRLQFDEFQIVSSSHDDTILIWDFLNDPAAQAEPPRSPSRTYTYISR
# notes: 569 amino acids; also called whole h-βTrCP protein
# B2: IκBα S32-36A (IκBα mutant at serines S32 and S36 so that there is no phosphorylation) (other, UniProt P25963 1-317, looked up)
# chain: MFQAAERPQEWAMEGPRDGLKKERLLDDRHDAGLDAMKDEEYEQMVKELQEIRLEPQEVPRGSEPWKQQLTEDGDSFLHLAIIHEEKALTMEVIRQVKGDLAFLNFQNNLQQTPLHLAVITNQPEIAEALLGAGCDPELRDFRGNTPLHLACEQGCLASVGVLTQSCTTPHLHSILKATNYNGHTCLHLASIHGYLGIVELLVSLGADVNAQEPCNGRTALHLAVDLQNPDLVSLLLKCGADVNRVTYQGYSPYQLTWGRPSTRIQQQLGQLTLENLQMLPESEDEESYDTESEFTEFTEDELPYDDCVFGGQRLTL
# notes: Two-hybrid hybrid; also called IκBα S32-36AA
# B3: βCat1→130 S33-37AA (oncogenic β-catenin protein mutated on serine residues S33 and S37 so that there is no phosphorylation) (other, UniProt P35222 1-130, looked up)
# chain: MATQADLMELDMAMEPDRKAAVSHWQQQSYLDAGIHAGATTTAPSLSGKGNPEEEDVDTSQVLYEWEQGFSQSFTQEQVADIDGQYAMTRAQRVRAAMFPETLDEGMQIPSTQFDAAHPTNVQRLAEPSQ
# notes: range 1-130; also called mutated β-catenin
# B4: cytoplasmic region of CD4 (CD4c) (receptor, UniProt P01730 419-458, looked up)
# chain: CVRCRHRRRQAERMSQIKRLLSEKKTCQCPHRFQKTCSPI
# notes: domain: cytoplasmic region; Two-hybrid fusion; also called CD4 cytoplasmic domain
# What was measured:
# [1] = molecular target: endogenous IκBα protein of 293 or Hela cells, phosphorylated form (human) (UniProt P25963); assay: cell-based or functional assay
# [2] = molecular target: T1, βCat (whole normal β-catenin protein); assay: yeast two-hybrid, FIG. 10
# [3] = molecular target: B1; assay: yeast two-hybrid
# [4] = molecular target: T2, KIAA 0696 (βTrCP2), human βTrCP protein …; assay: yeast two-hybrid
# [5] = molecular target: B1; assay: yeast two-hybrid (His3 and LacZ reporters)
# human Skp1p protein = human Skp1p protein (human, UniProt P63208 1-163); assay: yeast two-hybrid (strain L40)
# human Skp1p protein, sequence (P63208 whole entry): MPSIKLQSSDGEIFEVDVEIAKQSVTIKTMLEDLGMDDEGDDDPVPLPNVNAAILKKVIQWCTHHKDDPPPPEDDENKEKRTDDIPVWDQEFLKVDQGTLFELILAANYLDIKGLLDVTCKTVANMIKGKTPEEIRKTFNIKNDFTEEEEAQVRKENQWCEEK
molecule,measurement,setting,value
h-βTrCPΔF fragment (deleted residues: 32 to 179) (from UniProt Q9Y297 1-605),"fold decrease in transcription activation induced by TNFα (NFκB-dependent luciferase reporter, FIG. 7)",[1],20 fold
B1,binding result,[2],binds
B2,binding result,[3],no binding
B3,binding result,[3],no binding
same,binding result,[4],no binding
B4,binding result,[5],no binding
same,binding result,human Skp1p protein,no binding

# From patent publication US6730486 (INSTITUT NATIONAL DE LA SANTE ET DE LA RECHERCHE MEDICALE, dated 2004)
